This passage reports reduction of binding against WT KLC1 results from paper PMC7721913.

In the assay the target is HA-SFPQ (human) (UniProt P23246). Nature of the assay: co-IP.
HA-SFPQ (human), sequence (P23246 whole entry): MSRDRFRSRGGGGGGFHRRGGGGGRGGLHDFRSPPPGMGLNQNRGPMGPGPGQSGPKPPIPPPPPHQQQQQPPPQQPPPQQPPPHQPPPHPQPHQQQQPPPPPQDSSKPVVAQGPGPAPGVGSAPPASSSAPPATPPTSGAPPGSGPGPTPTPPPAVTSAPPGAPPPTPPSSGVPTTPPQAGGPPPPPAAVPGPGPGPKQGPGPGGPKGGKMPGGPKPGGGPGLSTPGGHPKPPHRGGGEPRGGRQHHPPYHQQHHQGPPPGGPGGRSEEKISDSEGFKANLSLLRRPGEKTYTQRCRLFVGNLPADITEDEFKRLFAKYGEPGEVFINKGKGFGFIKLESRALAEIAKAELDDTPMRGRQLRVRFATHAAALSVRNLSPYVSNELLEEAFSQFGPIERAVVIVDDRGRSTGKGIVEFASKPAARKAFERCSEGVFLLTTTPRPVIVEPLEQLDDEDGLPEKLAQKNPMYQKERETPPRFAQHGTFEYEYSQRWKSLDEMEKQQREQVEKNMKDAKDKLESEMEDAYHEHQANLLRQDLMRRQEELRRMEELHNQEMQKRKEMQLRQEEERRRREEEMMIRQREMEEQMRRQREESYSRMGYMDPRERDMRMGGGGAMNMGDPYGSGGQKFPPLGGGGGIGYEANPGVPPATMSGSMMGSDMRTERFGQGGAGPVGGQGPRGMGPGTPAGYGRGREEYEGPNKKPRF

Myc-KLC1 ΔTail (domain or fragment), sequence (O88447 whole entry, stated change not applied, the tested form may be a part): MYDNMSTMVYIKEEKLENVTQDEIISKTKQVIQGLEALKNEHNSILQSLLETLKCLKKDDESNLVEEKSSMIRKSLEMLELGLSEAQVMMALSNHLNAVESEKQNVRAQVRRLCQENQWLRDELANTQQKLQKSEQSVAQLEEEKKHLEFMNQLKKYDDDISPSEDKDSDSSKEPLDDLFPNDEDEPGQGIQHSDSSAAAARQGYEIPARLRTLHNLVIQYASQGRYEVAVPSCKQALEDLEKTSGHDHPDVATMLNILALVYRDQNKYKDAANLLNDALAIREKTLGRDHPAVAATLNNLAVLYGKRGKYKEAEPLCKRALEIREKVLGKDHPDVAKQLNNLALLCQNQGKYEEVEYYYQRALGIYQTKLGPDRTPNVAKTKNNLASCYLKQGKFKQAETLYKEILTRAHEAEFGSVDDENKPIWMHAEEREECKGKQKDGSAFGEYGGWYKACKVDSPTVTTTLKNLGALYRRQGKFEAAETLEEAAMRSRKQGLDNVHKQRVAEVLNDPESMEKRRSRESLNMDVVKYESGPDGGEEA

Myc-KLC1 ΔTail (domain or fragment) returned a reduction of binding against WT KLC1 of 50%.
